Experimental data taken from publication PMC6089081 (Redox Biology, 2018).

Biological target: the molecule itself
Experiment: native gel or EMSA

B1: GRPEL2 (natural protein)
chain: STATQRTAGEDCRSEDPPDELGPPLAERALRVKAVKLEKEVQDLTVRYQRAIADCENIRRRTQRCVEDAKIFGIQSFCKDLVEVADILEKTTECISEESEPEDQKLTLEKVFRGLLLLEAKLKSVFAKHGLEKLTPIGDKYDPHEHELICHVPAGVGVQPGTVALVRQDGYKLHGRTIRLARVEVAVESQRRL
  stoichiometry N: 2
